A value given as a limit tells only on which side of the number the result lay.

Results on 14 molecules are retold here after US20150274828A1 (SHANGHAI SERUM BIOTECHNOLOGY, published 2015).

In assay [1] the target is T1, EGFR on A431 cell surface (human, UniProt P00533 25-1210).
T1 construct: whole, on cells; also called natural EGFR on surface of A431 cell
Nature of the assay: flow cytometry on A431 cells, antibody 0.03 µg/ml, FITC anti-human IgG. Background: Flow cytometry measures light scatter and fluorescence of single cells or particles in a stream.

In assay [2] the target is T2, Recombinant human epidermal growth factor (EGF) (human, UniProt P01133 971-1023).
T2 construct: Coated on the ELISA plate; also called EGR
T2 sequence (P01133 971-1023 limits assumed): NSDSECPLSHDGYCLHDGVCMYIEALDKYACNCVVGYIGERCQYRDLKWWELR
Nature of the assay: ELISA, EGF coated at 1 µg/well, antibody without EGFR-Fc, HRP goat anti-human IgG.

In assay [3] the target is T3, EGFR-Fc fusion protein (recombinant EGFR extracellular region-Fc) (human, UniProt P00533 25-645).
T3 construct: extracellular domain; not shown: Fc part supplied by vector pABG1
Nature of the assay: BLI Fortebio, method of Example 5 (biotinylated EGFR-Fc on streptavidin sensor).

Assay [4] deals with T3, EGFR-Fc fusion protein (recombinant …). Briefly: BLI ForteBio QKe, biotinylated EGFR-Fc on streptavidin sensor, antibody 20 nM; fold reduction of affinity, parent Ame55 = 1.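 Note: parent antibody affinity set as 1, with values giving the fold drop in affinity of each mutant antibody relative to that parent.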 In general terms: BLI is a label-free optical method that tracks binding on a fibre tip over time.
The target is the same in assay [5]. Briefly: BLI ForteBio QKe, biotinylated EGFR-Fc on streptavidin sensor.
Assay [6] has the same target. Briefly: phage ELISA, EGFR-Fc coated, anti-M13-HRP. For orientation: An ELISA detects its analyte on a solid surface through an enzyme-linked reagent.

B1: Ame55 intact antibody (IgG1) (antibody, V domains shown)
VH: EVQLVQSGAEVKKPGESLKISCKGSGYSFTSYWIGWVRQMPGKGLEWMGIIYPGDSDTRYSPSFQGQVTISADKSISTAYLQWSSLKASDTAMYYCARGIIYPSNVAVWGQGTLVTVSS
VL: SYELTQPPSVSVAPGQTARITCSGDALGDKYASWYQQKPGQAPVLVIYEDSKRPSGIPERFSGSNSGNTATLTISGTQAEDEADYYCSVWDGDWGMPVFGGGTKLTVLG
notes: Variable regions cloned into vectors pABL and pABG1 and expressed in HEK293T as intact IgG1 with lambda light chain; also called Amet55; parent antibody Ame55
B1: the binding result in assay [1] is “binds”; in assay [2] it was “no binding”.

B2: Ame-9B (antibody, V domains shown)
VH: EVQLVESGGGLVQPGGSLRLSCAASGFTFSSYAMSWVRQAPGKGLEWVSAITGTGGETYYADSVKGRFTISRDNSKNTLYLQMNSLRAEDTAVYYCARGWSWTGVDPWGQGTLVTVSS
VL: SYELTQPPSVSVAPGQTARITCSGDALGDKYASWYQQKPGQAPVLVIYEDSKRPSGIPERFSGSNSGNTATLTISGTQAEDEADYYCSVWDGDWGMPVFGGGTKLTVLG
notes: Expressed in HEK293, purified on Protein A; also called mutant Ame-9B
Regarding B2, in assay [3], the “fold decrease of affinity (against Ame55)” value is around 6 times.

B3: Ame55 mutant, light chain 95A (antibody, V domains shown)
VH: EVQLVQSGAEVKKPGESLKISCKGSGYSFTSYWIGWVRQMPGKGLEWMGIIYPGDSDTRYSPSFQGQVTISADKSISTAYLQWSSLKASDTAMYYCARGIIYPSNVAVWGQGTLVTVSS
VL: SYELTQPPSVSVAPGQTARITCSGDALGDKYASWYQQKPGQAPVLVIYEDSKRPSGIPERFSGSNSGNTATLTISGTQAEDEADYYCSVWDGDWAMPVFGGGTKLTVLG
notes: Mutant of Ame55
Regarding B3, in assay [4], the Affinity change is above 10 fold.

B4: AmeA2C1 (the mutated light chain has Gly at site 26 and Ala at site 89) (antibody, V domains shown)
VH: EVQLVQSGAEVKKPGESLKISCKGSGYSFTSYWIGWVRQMPGKGLEWMGIIYPGDSDTRYSPSFQGQVTISADKSISTAYLQWSSLKASDTAMYYCARGIIYPSNVAVWGQGTLVTVSS
VL: SYELTQPPSVSVAPGQTARITCSGDGLGDKYASWYQQKPGQAPVLVIYEDSKRPSGIPERFSGSNSGNTATLTISGTQAEDEADYYCSAWDGDWGMPVFGGGTKLTVLG
notes: Mutant of Ame55; also called 26G + 89A
Turning to B4, the Affinity change in assay [4] is below 0.2 fold.

B5: AmeA2C3 (the mutated light chain has Lys at site 26 and Ala at site 89) (antibody, V domains shown)
VH: EVQLVQSGAEVKKPGESLKISCKGSGYSFTSYWIGWVRQMPGKGLEWMGIIYPGDSDTRYSPSFQGQVTISADKSISTAYLQWSSLKASDTAMYYCARGIIYPSNVAVWGQGTLVTVSS
VL: SYELTQPPSVSVAPGQTARITCSGDKLGDKYASWYQQKPGQAPVLVIYEDSKRPSGIPERFSGSNSGNTATLTISGTQAEDEADYYCSAWDGDWGMPVFGGGTKLTVLG
notes: Mutant of Ame55; also called 26K + 89A
For B5, the Affinity change in assay [4] is below 0.1 fold.

B6: Ame55 mutant, light chain 95S (antibody, V domains shown)
VH: EVQLVQSGAEVKKPGESLKISCKGSGYSFTSYWIGWVRQMPGKGLEWMGIIYPGDSDTRYSPSFQGQVTISADKSISTAYLQWSSLKASDTAMYYCARGIIYPSNVAVWGQGTLVTVSS
VL: SYELTQPPSVSVAPGQTARITCSGDALGDKYASWYQQKPGQAPVLVIYEDSKRPSGIPERFSGSNSGNTATLTISGTQAEDEADYYCSVWDGDWSMPVFGGGTKLTVLG
notes: Mutant of Ame55
For the molecule B6, the Affinity change in assay [4] is above 10 fold.

B7: Ame55 mutant, light chain 89S(A1) (antibody, V domains shown)
VH: EVQLVQSGAEVKKPGESLKISCKGSGYSFTSYWIGWVRQMPGKGLEWMGIIYPGDSDTRYSPSFQGQVTISADKSISTAYLQWSSLKASDTAMYYCARGIIYPSNVAVWGQGTLVTVSS
VL: SYELTQPPSVSVAPGQTARITCSGDALGDKYASWYQQKPGQAPVLVIYEDSKRPSGIPERFSGSNSGNTATLTISGTQAEDEADYYCSSWDGDWGMPVFGGGTKLTVLG
notes: Mutant of Ame55
For the molecule B7, the “fold increase of affinity against parent antibody Ame55” value in assay [5] stood at 4 times. The Affinity change in assay [4] stood at 0.5 fold.

B8: Ame55 mutant, light chain 96A (antibody, V domains shown)
VH: EVQLVQSGAEVKKPGESLKISCKGSGYSFTSYWIGWVRQMPGKGLEWMGIIYPGDSDTRYSPSFQGQVTISADKSISTAYLQWSSLKASDTAMYYCARGIIYPSNVAVWGQGTLVTVSS
VL: SYELTQPPSVSVAPGQTARITCSGDALGDKYASWYQQKPGQAPVLVIYEDSKRPSGIPERFSGSNSGNTATLTISGTQAEDEADYYCSVWDGDWGAPVFGGGTKLTVLG
notes: Mutant of Ame55
Turning to B8, the Affinity change in assay [4] was above 10 fold.

B9: AmeA2 (Ame55 mutant, light chain 89A(A2)) (antibody, V domains shown)
VH: EVQLVQSGAEVKKPGESLKISCKGSGYSFTSYWIGWVRQMPGKGLEWMGIIYPGDSDTRYSPSFQGQVTISADKSISTAYLQWSSLKASDTAMYYCARGIIYPSNVAVWGQGTLVTVSS
VL: SYELTQPPSVSVAPGQTARITCSGDALGDKYASWYQQKPGQAPVLVIYEDSKRPSGIPERFSGSNSGNTATLTISGTQAEDEADYYCSAWDGDWGMPVFGGGTKLTVLG
notes: Mutant of Ame55
Take B9: in assay [4], the Affinity change was determined as 0.25 fold.

B10: AmeA1C1 (the mutated light chain has Gly at site 26 and Ser at site 89) (antibody, V domains shown)
VH: EVQLVQSGAEVKKPGESLKISCKGSGYSFTSYWIGWVRQMPGKGLEWMGIIYPGDSDTRYSPSFQGQVTISADKSISTAYLQWSSLKASDTAMYYCARGIIYPSNVAVWGQGTLVTVSS
VL: SYELTQPPSVSVAPGQTARITCSGDGLGDKYASWYQQKPGQAPVLVIYEDSKRPSGIPERFSGSNSGNTATLTISGTQAEDEADYYCSSWDGDWGMPVFGGGTKLTVLG
notes: Mutant of Ame55; also called 26G + 89S
B10: in assay [4], the Affinity change was below 0.3 fold.

B11: Ame55 mutant, light chain G28P (antibody, V domains shown)
VH: EVQLVQSGAEVKKPGESLKISCKGSGYSFTSYWIGWVRQMPGKGLEWMGIIYPGDSDTRYSPSFQGQVTISADKSISTAYLQWSSLKASDTAMYYCARGIIYPSNVAVWGQGTLVTVSS
VL: SYELTQPPSVSVAPGQTARITCSGDALPDKYASWYQQKPGQAPVLVIYEDSKRPSGIPERFSGSNSGNTATLTISGTQAEDEADYYCSVWDGDWGMPVFGGGTKLTVLG
notes: Mutant of Ame55
As for B11, the Affinity change in assay [4] is above 100 fold.

B12: AmeA1C3 (the mutated light chain has Lys at site 26 and Ser at site 89) (antibody, V domains shown)
VH: EVQLVQSGAEVKKPGESLKISCKGSGYSFTSYWIGWVRQMPGKGLEWMGIIYPGDSDTRYSPSFQGQVTISADKSISTAYLQWSSLKASDTAMYYCARGIIYPSNVAVWGQGTLVTVSS
VL: SYELTQPPSVSVAPGQTARITCSGDKLGDKYASWYQQKPGQAPVLVIYEDSKRPSGIPERFSGSNSGNTATLTISGTQAEDEADYYCSSWDGDWGMPVFGGGTKLTVLG
notes: Mutant of Ame55; also called 26K + 89S
Take B12: the Affinity change in assay [4] was below 0.2 fold.

B13: Ame55 mutant, light chain 97A (antibody, V domains shown)
VH: EVQLVQSGAEVKKPGESLKISCKGSGYSFTSYWIGWVRQMPGKGLEWMGIIYPGDSDTRYSPSFQGQVTISADKSISTAYLQWSSLKASDTAMYYCARGIIYPSNVAVWGQGTLVTVSS
VL: SYELTQPPSVSVAPGQTARITCSGDALGDKYASWYQQKPGQAPVLVIYEDSKRPSGIPERFSGSNSGNTATLTISGTQAEDEADYYCSVWDGDWGMAVFGGGTKLTVLG
notes: Mutant of Ame55
On to B13, for which, in assay [4], the Affinity change was above 10 fold.

B14: Ame55 phage single chain antibody (scFv)
scFv: SYELTQPPSVSVAPGQTARITCSGDALGDKYASWYQQKPGQAPVLVIYEDSKRPSGIPERFSGSNSGNTATLTISGTQAEDEADYYCSVWDGDWGMPVFGGGTKLTVLGSGGSTITSYNVYYTKLSSSGSEVQLVQSGAEVKKPGESLKISCKGSGYSFTSYWIGWVRQMPGKGLEWMGIIYPGDSDTRYSPSFQGQVTISADKSISTAYLQWSSLKASDTAMYYCARGIIYPSNVAVWGQGTLVTVSS
notes: the phage coat fusion is not described; also called Ame55 phage antibody; Ame55 single chain antibody
Consider B14, for which, in assay [6], the binding result is “binds”.
